# Reference: the supplement of paper PMC9112550, “Optimization of the antimicrobial peptide Bac7 by deep mutational scanning” (BMC Biology, 2022)
# System: Escherichia coli TOP10
# Assay: shrunken log2 fold change of peptide-encoding DNA abundance (4.5 h post-induction vs induction); higher = less antimicrobial activity (less host growth inhibition)
# Details: time post-induction: 4.5 h; library: site-saturation at positions 5, 18, 19, 20
# 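Also: peptides expressed intracellularly from a pBAD plasmid library in pooled LB shake-flask culture, induced with 0.3% L-arabinose, DNA abundance read by NGS, three biological replicates, DESeq2 with apeglm shrinkage.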
row,Sequence,shrunken log2 fold change
1,RRIRNRPPRLPRPRPRPIELPRP,-0.232
2,RRIRTRPPRLPRPRPRPSRWPRP,0.0135
3,RRIRVRPPRLPRPRPRPFGQPRP,-0.222
4,RRIRMRPPRLPRPRPRPEWPPRP,0.0994
5,RRIRHRPPRLPRPRPRPSYTPRP,-0.714
6,RRIRLRPPRLPRPRPRPKGQPRP,-0.11
7,RRIRERPPRLPRPRPRPDQSPRP,-0.336
8,RRIRNRPPRLPRPRPRPRSQPRP,-0.0986
9,RRIRLRPPRLPRPRPRPERNPRP,0.129
10,RRIRLRPPRLPRPRPRPFPGPRP,0.143
11,RRIRVRPPRLPRPRPRPWNHPRP,-0.152
12,RRIRLRPPRLPRPRPRPPDPPRP,0.584
13,RRIRIRPPRLPRPRPRPRLNPRP,-0.247
14,RRIRDRPPRLPRPRPRPAICPRP,0.391
15,RRIRVRPPRLPRPRPRPDRNPRP,-0.162
16,RRIRTRPPRLPRPRPRPWPIPRP,0.00716
17,RRIRWRPPRLPRPRPRPTAWPRP,2
18,RRIRVRPPRLPRPRPRPQPDPRP,0.23
19,RRIRGRPPRLPRPRPRPRNMPRP,0.0712
20,RRIRFRPPRLPRPRPRPHMVPRP,-0.809
21,RRIRERPPRLPRPRPRPQWRPRP,-0.0529
22,RRIRWRPPRLPRPRPRPETPPRP,1.33
23,RRIRTRPPRLPRPRPRPPPQPRP,0.848
24,RRIRLRPPRLPRPRPRPPSCPRP,0.341
25,RRIRGRPPRLPRPRPRPPLLPRP,0.633

row,Sequence,shrunken log2 fold change
1,RRIRDRPPRLPRPRPRPLMMPRP,0.0576
2,RRIRWRPPRLPRPRPRPSKIPRP,-0.152
3,RRIRARPPRLPRPRPRPTCSPRP,0.483
4,RRIRNRPPRLPRPRPRPITQPRP,-0.187
5,RRIRIRPPRLPRPRPRPMTDPRP,-0.91
6,RRIRRRPPRLPRPRPRPIYWPRP,0.08
7,RRIRPRPPRLPRPRPRPSDYPRP,-0.691
8,RRIRDRPPRLPRPRPRPTFFPRP,2.16
9,RRIRPRPPRLPRPRPRPPVVPRP,0.649
10,RRIRVRPPRLPRPRPRPLMTPRP,-0.24
11,RRIRSRPPRLPRPRPRPSLHPRP,-0.385
12,RRIRMRPPRLPRPRPRPFRKPRP,-0.0166
13,RRIRDRPPRLPRPRPRPAYMPRP,-0.342
14,RRIRMRPPRLPRPRPRPHCYPRP,-0.0522
15,RRIRPRPPRLPRPRPRPIVWPRP,0.0606
16,RRIRNRPPRLPRPRPRPSHGPRP,0.108
17,RRIRGRPPRLPRPRPRPYIVPRP,0.0237
18,RRIRERPPRLPRPRPRPTFPPRP,-0.44
19,RRIRRRPPRLPRPRPRPMCLPRP,0.0511
20,RRIRQRPPRLPRPRPRPTCDPRP,-0.116
21,RRIRSRPPRLPRPRPRPQKWPRP,-0.0746
22,RRIRNRPPRLPRPRPRPEPKPRP,0.0124
23,RRIRVRPPRLPRPRPRPDFAPRP,0.147
24,RRIRERPPRLPRPRPRPEIQPRP,0.422
25,RRIRDRPPRLPRPRPRPDYFPRP,-0.052

row,Sequence,shrunken log2 fold change
1,RRIRLRPPRLPRPRPRPLPPPRP,0.678
2,RRIRPRPPRLPRPRPRPSLSPRP,0.022
3,RRIRMRPPRLPRPRPRPKVHPRP,-0.132
4,RRIRERPPRLPRPRPRPCRLPRP,-0.197
5,RRIRNRPPRLPRPRPRPVVRPRP,0.12
6,RRIRGRPPRLPRPRPRPPELPRP,1.18
7,RRIRMRPPRLPRPRPRPYKTPRP,0.0261
8,RRIRYRPPRLPRPRPRPTHTPRP,0.049
9,RRIRNRPPRLPRPRPRPTWWPRP,0.326
10,RRIRERPPRLPRPRPRPRAGPRP,0.459
11,RRIRCRPPRLPRPRPRPSAHPRP,-0.0707
12,RRIRGRPPRLPRPRPRPSQSPRP,0.0755
13,RRIRGRPPRLPRPRPRPFYLPRP,-0.0695
14,RRIRDRPPRLPRPRPRPRKNPRP,0.244
15,RRIRARPPRLPRPRPRPWKNPRP,-0.145
16,RRIRRRPPRLPRPRPRPTRDPRP,0.64
17,RRIRGRPPRLPRPRPRPLAAPRP,1.91
18,RRIRTRPPRLPRPRPRPLKHPRP,-0.315
19,RRIRSRPPRLPRPRPRPGWSPRP,0.334
20,RRIRTRPPRLPRPRPRPPETPRP,0.161
21,RRIRSRPPRLPRPRPRPQADPRP,-0.0788
22,RRIRWRPPRLPRPRPRPIFRPRP,0.0199
23,RRIRSRPPRLPRPRPRPSWEPRP,0.0729
24,RRIRYRPPRLPRPRPRPIELPRP,-0.0405
25,RRIRRRPPRLPRPRPRPRSIPRP,-0.0781

row,Sequence,shrunken log2 fold change
1,RRIRMRPPRLPRPRPRPSVCPRP,0.386
2,RRIRDRPPRLPRPRPRPFIHPRP,-0.572
3,RRIRDRPPRLPRPRPRPTPIPRP,0.103
4,RRIRPRPPRLPRPRPRPSTVPRP,-0.687
5,RRIRERPPRLPRPRPRPFPVPRP,-0.214
6,RRIRGRPPRLPRPRPRPYEFPRP,-0.0878
7,RRIRCRPPRLPRPRPRPDCFPRP,0.182
8,RRIRQRPPRLPRPRPRPMLVPRP,0.142
9,RRIRFRPPRLPRPRPRPMGYPRP,-0.226
10,RRIRQRPPRLPRPRPRPEPVPRP,0.0323
11,RRIRTRPPRLPRPRPRPIKCPRP,-0.234
12,RRIRERPPRLPRPRPRPSKPPRP,0.0303
13,RRIRERPPRLPRPRPRPLRTPRP,0.00359
14,RRIRFRPPRLPRPRPRPYPNPRP,-0.152
15,RRIRIRPPRLPRPRPRPFQNPRP,-0.296
16,RRIRGRPPRLPRPRPRPQMSPRP,0.395
17,RRIRIRPPRLPRPRPRPHQYPRP,-1.31
18,RRIRIRPPRLPRPRPRPKLVPRP,0.116
19,RRIRLRPPRLPRPRPRPRMQPRP,-0.0604
20,RRIRHRPPRLPRPRPRPYMNPRP,-1.04
21,RRIRSRPPRLPRPRPRPREVPRP,-0.0353
22,RRIRARPPRLPRPRPRPYIGPRP,0.00388
23,RRIRERPPRLPRPRPRPVKIPRP,-0.181
24,RRIRSRPPRLPRPRPRPAVTPRP,0.293
25,RRIRVRPPRLPRPRPRPAENPRP,0.15

row,Sequence,shrunken log2 fold change
1,RRIRNRPPRLPRPRPRPRIKPRP,0.0822
2,RRIRQRPPRLPRPRPRPVPPPRP,0.536
3,RRIRGRPPRLPRPRPRPMSVPRP,0.0559
4,RRIRLRPPRLPRPRPRPTNHPRP,-0.174
5,RRIRQRPPRLPRPRPRPMYGPRP,-0.0233
6,RRIRIRPPRLPRPRPRPPFHPRP,-0.513
7,RRIRWRPPRLPRPRPRPLIMPRP,-0.0185
8,RRIRERPPRLPRPRPRPIGDPRP,-0.942
9,RRIRTRPPRLPRPRPRPVSWPRP,0.522
10,RRIRCRPPRLPRPRPRPSHNPRP,-0.628
11,RRIRSRPPRLPRPRPRPIKPPRP,0.0213
12,RRIRYRPPRLPRPRPRPDAEPRP,-0.0535
13,RRIRMRPPRLPRPRPRPMERPRP,-0.0334
14,RRIRPRPPRLPRPRPRPMTRPRP,0.0702
15,RRIRERPPRLPRPRPRPQADPRP,-0.171
16,RRIRHRPPRLPRPRPRPDLWPRP,0.0395
17,RRIRKRPPRLPRPRPRPWAAPRP,0.473
18,RRIRVRPPRLPRPRPRPYKRPRP,-0.0182
19,RRIRGRPPRLPRPRPRPVYMPRP,0.361
20,RRIRVRPPRLPRPRPRPLEMPRP,-0.308
21,RRIRYRPPRLPRPRPRPNNTPRP,-1.32
22,RRIRFRPPRLPRPRPRPRCEPRP,-0.0311
23,RRIRNRPPRLPRPRPRPYIPPRP,-0.36
24,RRIRGRPPRLPRPRPRPEAQPRP,1.61
25,RRIRLRPPRLPRPRPRPWWYPRP,-0.227

row,Sequence,shrunken log2 fold change
1,RRIRLRPPRLPRPRPRPMREPRP,1.25
2,RRIRVRPPRLPRPRPRPGKCPRP,0.0804
3,RRIRERPPRLPRPRPRPSWFPRP,-0.589
4,RRIRARPPRLPRPRPRPWIMPRP,-0.332
5,RRIRFRPPRLPRPRPRPWSTPRP,-0.0601
6,RRIRIRPPRLPRPRPRPCHTPRP,-0.0495
7,RRIRCRPPRLPRPRPRPMMDPRP,-0.117
8,RRIRRRPPRLPRPRPRPFNHPRP,-0.275
9,RRIRYRPPRLPRPRPRPPKLPRP,-0.172
10,RRIRMRPPRLPRPRPRPPYCPRP,0.0371
11,RRIRTRPPRLPRPRPRPGEDPRP,0.109
12,RRIRMRPPRLPRPRPRPLYCPRP,-0.396
13,RRIRRRPPRLPRPRPRPFVTPRP,-0.0614
14,RRIRERPPRLPRPRPRPKHGPRP,-0.017
15,RRIRLRPPRLPRPRPRPNHNPRP,-0.726
16,RRIRSRPPRLPRPRPRPRYRPRP,-0.276
17,RRIRVRPPRLPRPRPRPQLVPRP,-0.048
18,RRIRMRPPRLPRPRPRPSQKPRP,0.246
19,RRIRDRPPRLPRPRPRPNNYPRP,-0.542
20,RRIRNRPPRLPRPRPRPGIEPRP,-0.0795
21,RRIRLRPPRLPRPRPRPERLPRP,0.466
22,RRIRMRPPRLPRPRPRPMKNPRP,0.328
23,RRIRRRPPRLPRPRPRPCIMPRP,-0.191
24,RRIRKRPPRLPRPRPRPVDIPRP,-0.0337
25,RRIRHRPPRLPRPRPRPEQQPRP,0.096
